IC50 data for 2 substances are collected here from patent publication US20160130305A1.

For one assay, the target named is HLA DRB1*0101 (human). In words: competition with radiolabeled probe peptide, purified MHC.
A further assay addresses HLA B*0702 (human). In words: competition with radiolabeled probe peptide on purified HLA.

The IC50 is the concentration at which inhibition is half-maximal. A lower IC50 goes with greater potency. For the substance “NS52967-2981 (peptide; other documents disagree on this pair)”, in the assay with HLA DRB1*0101 (human), the IC50 stood at 48 nM.
The substance NS4B2296-2305 (peptide) came in with an IC50 with HLA B*0702 (human) of over 1000 nM.
